The source of these data is the NTF2 design screens of Basanta et al. (2020).

This data set can be described thus: protease stability score; higher = more stable; yeast display proteolysis, trypsin and chymotrypsin.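 Note: log10 excess protease needed over predicted unfolded state with 0 meaning unfolded.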
Turning to “DEEHAEELMKRWMEVVKKGDKDTVKELYKPNGTWRNVDEEHQGVEQVQKMMKKIQDVGVEFQVRKAKVEGDRVTVVYDVRAGDVEVTFTVQMDVDGGRVELVQVKVDEDAKKAVKTG”, the protease stability score was 0.034.
For “DKEEARKVLEELIKAVESGNPKDLKKYGKDGVKYRLGDREAHGPEAVYKQFEQIHRQGVELRFEDTKVEGDKVTTRVTYRNGDETYTVQIHAEVRGGKIDRVEADLSDKAKEVVKHG” the value was -0.066; for “DEDMYEQYESILHNERTGNEDEWVENIDPNARIRVGDKEVHGMEDNAREKRRHQEEQRVHFDIKRYSIHNGELDVTAKMRRDVNGQPAQDDVKVRIVVENGRIKEQDQDFDEDDDRRQKK”, -0.037; for “DEELSKRAKHLIEMMKTGDEKEIQKQMDKDVKIDIGDKTIKGREDAAEQWRNRVEKIRWSLTIRHVNVQGNHVTMNVEVHLNVNGQPNRYTIEISFTFHNGKIVYISVSFDEDTEEKAKK”, 1.18.
The same measure for “DEENVKQAKKFADAMRHGDPEKLAKLADENAKLVIGDKTVHGRDDLRRERKKLNEHSRQHVDVKSIEAENGRVDVTASMTLSHNGKPDQVHVKIHMRITNGQIEEVHVNYKP”: -0.492; for “EQELRKKATEMLKVVQEGDEDRLVEYADPNVRVQVGDKVLHGQEDLRKFVQRLTKESRIHLKHVDIEVHGNKIDITVEADVEHNGRPSTDTFSMRVEMENGRAKFIQVRTSK”: 1.39; for “DEEMLEVVKQLLHAYQNGDEEKVKRLLDPNARVQVGDQVVHGRESYANEVRKERDEIRFDVKITSVKVHNGKIDIKADVHVNINGKPVKFDVIIEYKMEGDKIKQINVQMDPSQWKERES”: 0.913.
For “DEDREQEMLEKMVQIWEEGDEEKMVRLADPNVTVRVGDKNVHGRKHLREELQKERKQVDHFYVRHITIHNGTVNLDVEYNHNGQREQATVIAKVHDGRIKELSVHSS” the value was -0.204; for “DEENVKVMEHWNKATSNNDEDKHRELADENANFNIGDKRIHGREDFVRWVQELKNRLRIKVEVNSIQAQGDKVTVHYKLKQETNGEPDTRNVKATARIQNGRVRSLTVKDNQ”, -0.116; for “DEEAYRLFSEMEKARKDNDEEKLRELADEDVRFEVGDSVIKGMTRWATRVVQTAREQRFSYDIKRWHIEGDKVVVHREVRESHNGQPRSRTVVYRAHVDNGRVKSVTVEDTG”, 0.158.
As for “DEETDEKVAKTLMRIMRTGDPKQYADQADEEVRVVVGDQTYTGRESVSEAFEEWTERVDHLEIKDIRVHGEKVNIDAVVDINGHQRKIEFSMTLHNGRIKELVYTDG”, the protease stability score is -0.598.
The same measure for “DEDAAKDYETIVKQQESGDEDKVRQNVDPNAKWHIGEKKVHGRESLANEVHRVRRQMNERMEVKTVKDQGDKANVEMRVVQQHNGEPKDYTMQVDVHAHNGRLREVKATEQS”: -0.388; for “DERDATNAIESVMKAIKEGDPDQMQKNADPNARLQIGDKVYHGRETIVTLLKELAHRVDHLQIDSMHQHNGRVTVSILVQVNGQRRTVNIEAQARDGRLKNMHIDPEFWRQLER”: 0.781; for “DEDDARKVRKLAKTNDWDELVHRFRDDVRFKVGNQRYSGRENAQTVAQELRKKVDHIRITSLHSTPGHVVLHMTMVVNGRKITVVIFIRMDNGRAVSFSLRVRDEEVKKHITQAFS”: 0.141.
The same measure for “DEEKLDVARQYFEAVERGDEDRALELVDKDVRVDVGEKRVRGREEAKTQIRREEEEIRLRVEHVDFTAKGDRVRVRVVQVENINGRPVRFHYTMNMTMHNGRIKRIDVQIPEEVQEQLRG”: -0.146.
The same measure for “DEEDNTKLKRIMQTGDFETLVHQADENAEFHYGDKTYHGNDQAHKAVENQKKQFDKIEVRSIETKNGHVHVEFRIEVNGRELVLTAFANVHNGRVKNATVQARSEEDRKSLKELDR”: 0.044; for “DEEDQAKELAERYLEAMENGDEEKNARLADKDVSLTVGDKHVHGREELKKWFRTFVHRVDHVEIQVHDVKVSNGNATIDAEIKYTFNGRDVKKQVLMHAHVKNGELTLKRMTFE”: 1.02; for “DREDTAREAAHEAIKIWKTGDPEKLKELFDPNVKVKIGDRTVHGREELVRQIRHEREQVDHLSFDLEDYKMDGDQMHVVVRFTANRNGRRTEDKQVYNASFHNGQFRIHEMNKK”: -0.356.
